# Laboratory results as given in the Human Domainome abundance scans (Beltran et al. 2025).
# ± gives the uncertainty stated by the source.
# Assay: abundance fitness (aPCA) (normalised: wild type 0, dead -1); higher = more abundant; growth selection in yeast, the domain comes from the species named
# Conditions: Bacillus caldolyticus
row,Substance,abundance fitness
1,"Cold shock protein CspB E21R, P41016",0.011 ± 0.036
2,"Cold shock protein CspB G22P, P41016",0.032 ± 0.047
3,"Cold shock protein CspB I18R, P41016",-0.908 ± 0.044
4,"Cold shock protein CspB S24E, P41016",0.012 ± 0.053
5,"Cold shock protein CspB V20G, P41016",0.004 ± 0.039

# Same assay, conditions: Homo sapiens
row,Substance,abundance fitness
1,"Gamma-crystallin C A162C, P07315",-0.092 ± 0.14
2,"Gamma-crystallin C L167W, P07315",-0.575 ± 0.23
3,"Gamma-crystallin C R153W, P07315",-0.775 ± 0.22
4,"Scaffold attachment factor B1 A41C, Q15424",-0.317 ± 0.08
5,"Scaffold attachment factor B1 A41D, Q15424",-0.204 ± 0.064
6,"Scaffold attachment factor B1 A41E, Q15424",-0.049 ± 0.062
7,"Scaffold attachment factor B1 A41F, Q15424",-0.145 ± 0.053
8,"Scaffold attachment factor B1 A41G, Q15424",-0.095 ± 0.063
9,"Scaffold attachment factor B1 A41H, Q15424",-0.449 ± 0.11
10,"Scaffold attachment factor B1 A41I, Q15424",-0.114 ± 0.073
11,"Scaffold attachment factor B1 A41K, Q15424",-0.205 ± 0.068
12,"Scaffold attachment factor B1 A41L, Q15424",-0.12 ± 0.055
13,"Scaffold attachment factor B1 A41M, Q15424",-0.142 ± 0.061
14,"Scaffold attachment factor B1 A41N, Q15424",-0.311 ± 0.1
15,"Scaffold attachment factor B1 A41Q, Q15424",-0.257 ± 0.072
16,"Scaffold attachment factor B1 A41R, Q15424",-0.12 ± 0.051
17,"Scaffold attachment factor B1 A41S, Q15424",-0.128 ± 0.053
18,"Scaffold attachment factor B1 A41T, Q15424",-0.164 ± 0.059
19,"Scaffold attachment factor B1 A41V, Q15424",-0.105 ± 0.053
20,"Scaffold attachment factor B1 A41W, Q15424",-0.122 ± 0.049
21,"Scaffold attachment factor B1 A41Y, Q15424",-0.176 ± 0.069
22,"Scaffold attachment factor B1 A64C, Q15424",-0.016 ± 0.077

row,Substance,abundance fitness
1,"Scaffold attachment factor B1 A64D, Q15424",-0.601 ± 0.11
2,"Scaffold attachment factor B1 A64F, Q15424",-0.317 ± 0.089
3,"Scaffold attachment factor B1 A64G, Q15424",-0.527 ± 0.053
4,"Scaffold attachment factor B1 A64H, Q15424",-0.132 ± 0.082
5,"Scaffold attachment factor B1 A64I, Q15424",-0.109 ± 0.073
6,"Scaffold attachment factor B1 A64K, Q15424",-0.228 ± 0.08
7,"Scaffold attachment factor B1 A64L, Q15424",-0.146 ± 0.052
8,"Scaffold attachment factor B1 A64M, Q15424",-0.416 ± 0.1
9,"Scaffold attachment factor B1 A64N, Q15424",-0.551 ± 0.15
10,"Scaffold attachment factor B1 A64P, Q15424",-0.603 ± 0.087
11,"Scaffold attachment factor B1 A64Q, Q15424",-0.162 ± 0.086
12,"Scaffold attachment factor B1 A64R, Q15424",-0.236 ± 0.048
13,"Scaffold attachment factor B1 A64T, Q15424",-0.125 ± 0.078
14,"Scaffold attachment factor B1 A64W, Q15424",-0.249 ± 0.062
15,"Scaffold attachment factor B1 A64Y, Q15424",-0.519 ± 0.12
16,"Scaffold attachment factor B1 D33A, Q15424",-0.303 ± 0.049
17,"Scaffold attachment factor B1 D33C, Q15424",-0.354 ± 0.061
18,"Scaffold attachment factor B1 D33E, Q15424",-0.209 ± 0.078
19,"Scaffold attachment factor B1 D33F, Q15424",-0.715 ± 0.063
20,"Scaffold attachment factor B1 D33G, Q15424",-0.281 ± 0.053
21,"Scaffold attachment factor B1 D33H, Q15424",-0.262 ± 0.1
22,"Scaffold attachment factor B1 D33I, Q15424",-0.88 ± 0.12

row,Substance,abundance fitness
1,"Scaffold attachment factor B1 D33K, Q15424",-0.451 ± 0.069
2,"Scaffold attachment factor B1 D33L, Q15424",-0.437 ± 0.06
3,"Scaffold attachment factor B1 D33M, Q15424",-0.235 ± 0.055
4,"Scaffold attachment factor B1 D33N, Q15424",-0.291 ± 0.068
5,"Scaffold attachment factor B1 D33P, Q15424",-0.726 ± 0.069
6,"Scaffold attachment factor B1 D33Q, Q15424",-0.192 ± 0.069
7,"Scaffold attachment factor B1 D33S, Q15424",-0.15 ± 0.054
8,"Scaffold attachment factor B1 D33T, Q15424",-0.308 ± 0.077
9,"Scaffold attachment factor B1 D33V, Q15424",-0.493 ± 0.054
10,"Scaffold attachment factor B1 D33W, Q15424",-0.644 ± 0.062
11,"Scaffold attachment factor B1 D33Y, Q15424",-0.813 ± 0.099
12,"Scaffold attachment factor B1 D38A, Q15424",-0.388 ± 0.056
13,"Scaffold attachment factor B1 D38E, Q15424",-0.095 ± 0.059
14,"Scaffold attachment factor B1 D38F, Q15424",-0.874 ± 0.084
15,"Scaffold attachment factor B1 D38G, Q15424",-0.558 ± 0.051
16,"Scaffold attachment factor B1 D38H, Q15424",-0.428 ± 0.089
17,"Scaffold attachment factor B1 D38I, Q15424",-0.767 ± 0.11
18,"Scaffold attachment factor B1 D38L, Q15424",-0.683 ± 0.055
19,"Scaffold attachment factor B1 D38M, Q15424",-0.536 ± 0.071
20,"Scaffold attachment factor B1 D38N, Q15424",-0.414 ± 0.092
21,"Scaffold attachment factor B1 D38P, Q15424",-0.899 ± 0.057
22,"Scaffold attachment factor B1 D38Q, Q15424",-0.107 ± 0.069

row,Substance,abundance fitness
1,"Scaffold attachment factor B1 D38R, Q15424",-0.618 ± 0.055
2,"Scaffold attachment factor B1 D38S, Q15424",-0.446 ± 0.059
3,"Scaffold attachment factor B1 D38T, Q15424",-0.307 ± 0.072
4,"Scaffold attachment factor B1 D38V, Q15424",-0.629 ± 0.052
5,"Scaffold attachment factor B1 D38W, Q15424",-0.742 ± 0.067
6,"Scaffold attachment factor B1 D38Y, Q15424",-0.913 ± 0.12
7,"Scaffold attachment factor B1 D49A, Q15424",-0.329 ± 0.071
8,"Scaffold attachment factor B1 D49E, Q15424",-0.346 ± 0.077
9,"Scaffold attachment factor B1 D49F, Q15424",-0.762 ± 0.13
10,"Scaffold attachment factor B1 D49G, Q15424",-0.444 ± 0.062
11,"Scaffold attachment factor B1 D49H, Q15424",-0.396 ± 0.097
12,"Scaffold attachment factor B1 D49I, Q15424",-0.514 ± 0.1
13,"Scaffold attachment factor B1 D49K, Q15424",-0.275 ± 0.072
14,"Scaffold attachment factor B1 D49L, Q15424",-0.393 ± 0.061
15,"Scaffold attachment factor B1 D49M, Q15424",-0.464 ± 0.062
16,"Scaffold attachment factor B1 D49N, Q15424",-0.14 ± 0.061
17,"Scaffold attachment factor B1 D49P, Q15424",-0.285 ± 0.068
18,"Scaffold attachment factor B1 D49Q, Q15424",-0.328 ± 0.072
19,"Scaffold attachment factor B1 D49R, Q15424",-0.344 ± 0.052
20,"Scaffold attachment factor B1 D49S, Q15424",-0.219 ± 0.062
21,"Scaffold attachment factor B1 D49T, Q15424",-0.552 ± 0.081
22,"Scaffold attachment factor B1 D49V, Q15424",-0.408 ± 0.057

row,Substance,abundance fitness
1,"Scaffold attachment factor B1 D49Y, Q15424",-0.5 ± 0.057
2,"Scaffold attachment factor B1 D67C, Q15424",-0.244 ± 0.063
3,"Scaffold attachment factor B1 D67E, Q15424",-0.152 ± 0.089
4,"Scaffold attachment factor B1 D67F, Q15424",-0.293 ± 0.082
5,"Scaffold attachment factor B1 D67G, Q15424",-0.131 ± 0.046
6,"Scaffold attachment factor B1 D67H, Q15424",-0.333 ± 0.051
7,"Scaffold attachment factor B1 D67I, Q15424",-0.257 ± 0.079
8,"Scaffold attachment factor B1 D67K, Q15424",-0.258 ± 0.091
9,"Scaffold attachment factor B1 D67L, Q15424",-0.278 ± 0.052
10,"Scaffold attachment factor B1 D67M, Q15424",-0.167 ± 0.1
11,"Scaffold attachment factor B1 D67N, Q15424",-0.125 ± 0.091
12,"Scaffold attachment factor B1 D67Q, Q15424",-0.123 ± 0.077
13,"Scaffold attachment factor B1 D67R, Q15424",-0.168 ± 0.049
14,"Scaffold attachment factor B1 D67T, Q15424",-0.237 ± 0.071
15,"Scaffold attachment factor B1 D67V, Q15424",-0.19 ± 0.063
16,"Scaffold attachment factor B1 D67W, Q15424",-0.474 ± 0.048
17,"Scaffold attachment factor B1 D67Y, Q15424",-0.263 ± 0.13
18,"Scaffold attachment factor B1 D73A, Q15424",-0.196 ± 0.065
